B1: Tyrosine-protein phosphatase non-receptor type 2 (Homo sapiens), P17706-2 (parent)
chain: MPTTIEREFEELDTQRRWQPLYLEIRNESHDYPHRVAKFPENRNRNRYRDVSPYDHSRVKLQNAENDYINASLVDIEEAQRSYILTQGPLPNTCCHFWLMVWQQKTKAVVMLNRIVEKESVKCAQYWPTDDQEMLFKETGFSVKLLSEDVKSYYTVHLLQLENINSGETRTISHFHYTTWPDFGVPESPASFLNFLFKVRESGSLNPDHGPAVIHCSAGIGRSGTFSLVDTCLVLMEKGDDINIKQVLLNMRKYRMGLIQTPDQLRFSYMAIIEGAKCIKGDSSIQKRWKELSKEDLSPAFDHSPNKIMTEKYNGNRIGLEEEKLTGDRCTGLSSKMQDTMEENSESALRKRIREDRKATTAQKVQQMKQRLNENERKRKRPRLTDT
B2: Tyrosine-protein phosphatase non-receptor type 2 (Homo sapiens), P17706-1 (parent)
chain: MPTTIEREFEELDTQRRWQPLYLEIRNESHDYPHRVAKFPENRNRNRYRDVSPYDHSRVKLQNAENDYINASLVDIEEAQRSYILTQGPLPNTCCHFWLMVWQQKTKAVVMLNRIVEKESVKCAQYWPTDDQEMLFKETGFSVKLLSEDVKSYYTVHLLQLENINSGETRTISHFHYTTWPDFGVPESPASFLNFLFKVRESGSLNPDHGPAVIHCSAGIGRSGTFSLVDTCLVLMEKGDDINIKQVLLNMRKYRMGLIQTPDQLRFSYMAIIEGAKCIKGDSSIQKRWKELSKEDLSPAFDHSPNKIMTEKYNGNRIGLEEEKLTGDRCTGLSSKMQDTMEENSESALRKRIREDRKATTAQKVQQMKQRLNENERKRKRWLYWQPILTKMGFMSVILVGAFVGWTLFFQQNAL

The variants in one assay derive from B1. The following applies: with insr_human INSR.
Take D182A: the “effect of a mutation on the interaction” value is recorded as “causing an interaction”.

The variants in another assay derive from B2. The conditions noted are these: with insr_human INSR.
For the variant D182A, the “effect of a mutation on the interaction” value is “causing an interaction”.

The values are drawn from IntAct's records for PubMed 15192089.
